Patent EP0853661B1

Assays:
[1] = biological target: human TGFβ1 (transforming growth factor beta 1) (human) (UniProt P01137); assay: cell-based or functional assay
[2] = biological target: TGFβ3 (transforming growth factor beta 3) (UniProt P10600); assay: cell-based or functional assay
[3] = biological target: human TGFβ2 (transforming growth factor beta 2) (human) (UniProt P61812); assay: cell-based or functional assay
[4] = biological target: human TGFβ1 (transforming growth factor beta 1) (human) (UniProt P01137); assay: A549 cell radioreceptor assay, inhibition of 125I-TGFβ1 binding to receptors
[5] = biological target: human TGFβ2 (transforming growth factor beta 2) (human) (UniProt P61812); assay: A549 cell radioreceptor assay, inhibition of 125I-TGFβ2 binding to receptors
[6] = biological target: TGFβ3 (transforming growth factor beta 3) (UniProt P10600); assay: A549 cell radioreceptor assay, inhibition of 125I-TGFβ3 binding to receptors

Chain of TGFβ3 (transforming growth factor beta 3) (P10600 301-412 limits assumed): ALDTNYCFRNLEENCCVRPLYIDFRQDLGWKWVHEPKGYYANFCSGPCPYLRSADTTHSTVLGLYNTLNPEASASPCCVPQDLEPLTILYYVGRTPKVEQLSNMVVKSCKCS
Chain of human TGFβ1 (transforming growth factor beta 1) (human) (P01137 279-390 limits assumed): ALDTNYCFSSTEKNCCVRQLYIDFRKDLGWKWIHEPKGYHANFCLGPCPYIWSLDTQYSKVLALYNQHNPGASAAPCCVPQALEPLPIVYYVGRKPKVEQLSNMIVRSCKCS
Chain of human TGFβ2 (transforming growth factor beta 2) (human) (P61812 303-414): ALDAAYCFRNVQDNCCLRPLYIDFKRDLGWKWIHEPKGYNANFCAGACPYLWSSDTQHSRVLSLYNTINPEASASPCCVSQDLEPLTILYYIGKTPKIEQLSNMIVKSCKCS

TF1 cell proliferation assay IC50 (nM IgG) [1]: 1.5 nM
TF1 cell proliferation assay IC50 (nM IgG) [2]: 0.1 nM
TF1 cell proliferation assay IC50 (nM IgG) [3]: 10 nM
IC50 [4]: 0.55 nM
IC50 [5]: 0.5 nM
IC50 [6]: 0.03 nM
Substance: mouse monoclonal antibody from Genzyme (Mouse anti-TGF β1,2,3; J.R. Dasch et al.)
